# Source: the supplement of paper PMC9732359
# ± gives the uncertainty stated by the source.
# Assay: protein stability index of a GFP-peptide fusion (yeast GPS) (PSI 1-4); higher = more stable; sorted into four equal gates, so the index is relative within each strain
# Conditions: pdr5∆
# How it was run: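 Tiled 17-residue yeast protein peptides were fused downstream of GFP in a plasmid that also expresses Cherry, and the pooled library was carried in yeast. Mid-log cultures in leucine-free medium were sorted into four equal gates by GFP/Cherry fluorescence ratio, and plasmids from each gate were PCR-amplified and Illumina-sequenced, with reads assigned to strains by barcodes. The protein stability index for each peptide was each gate's read frequency times its gate number, summed.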
row,Sequence,protein stability index
1,EDSENPSDWQRNSFIRD [ITC1],3.12 ± 0.069
2,EEAAEESDDDMGFGLFD [RPP1B],2.87 ± 0.073
3,EEASQQQQLQQNSKEKN [MED2],2.85 ± 0.086
4,EEDADQEESFSLNLGIG [SRB8],3.01 ± 0.27

# Same assay, conditions: san1∆
row,Sequence,protein stability index
1,DKQDGTAKPAFSFGAKP [YJL041W/NSP1],3.22 ± 0.057
2,DKYHPGYFGKVGMRYFH [RPL28],2.99 ± 0.083
3,DKYKLYPVRIPRLDTSK [YJR042W/NUP85],3.12 ± 0.059
4,DLASSKEVLAKIVDLLA [RPN5],2.98 ± 0.091
5,DLAVCATIIGIISTAIA [ECM29],1.99 ± 0.054
6,DLEEVKRFQVLYPCYFD [SEC65],2.42 ± 0.25
7,DLKESMVKGLLKSFTES [ECM29],2.8 ± 0.1
8,DLLKNAPLFKKNSSRPM [SMD3],1.77 ± 0.11
9,DLSGADIQAMCTEAGLL [RPT2],3.46 ± 0.05
10,DLSISALLGDKIYNFGE [RPN9],3.15 ± 0.061
11,DLSLIVKARHGGCDYIF [CYT1],2.72 ± 0.1
12,DLSRNGRNGSNGNDESS [NUT1],3.18 ± 0.059
13,DLVRDIDIDKLIQLGVK [SRP72],2.71 ± 0.15
14,DLYHFALNYENEAGRKL [SNF2],3.26 ± 0.083
15,DMDPLAVSAASVVSMSN [SIR2],1.71 ± 0.18
16,DMQSSVDTGLQPQHPHY [YLR018C/POM34],2.96 ± 0.036
17,DNDSLTDLESLSSGESN [SIR4],3.07 ± 0.074
18,DNEGVASKSKKKFNMGK [RPC53],3.15 ± 0.08
19,DNEQNLESDFVTGASQF [PRE2],3.23 ± 0.077
20,DNHSGDATANATANATA [DSN1],3.32 ± 0.089
21,DNKMDSVKEDVKNNQEL [SMC4],2.51 ± 0.17
22,DNNNGDDDDEDDDEIVM [SKP1],2.89 ± 0.04
23,DNNYNTAETNNKVHETS [YDL088C/ASM4],2.78 ± 0.052
24,DNPLRQIPHFNNKILEK [BRR2],3.08 ± 0.086

row,Sequence,protein stability index
1,DNSATSYYELETIIFDS [RRI1],3.11 ± 0.042
2,DNSFNELTDNMSDFVPI [MCD1],2.92 ± 0.052
3,DNVQANDPAREKFSSFI [SNF12],3.1 ± 0.069
4,DPDLGLDLMFDEVYVQN [YJL039C/NUP192],2.93 ± 0.11
5,DPFKTSSFNKRSKFLST [IRR1],2.04 ± 0.082
6,DPFSDVDDDQDYVVAPG [GRR1],1.74 ± 0.19
7,DPLAKVNVLLQSYFSQL [BRR2],1.58 ± 0.092
8,DPNIKVNDTVKIDLASG [RPS4A],2.73 ± 0.087
9,DPTLTTTTSFTTSEATA [RPN4],2.58 ± 0.057
10,DQMVVGWYHSHPGFGCW [RPN11],2.37 ± 0.069
11,DRDESSPYAAMLAAQDV [RPS14A],2.55 ± 0.09
12,DRFIELISDQLLEFFEL [YML103C/NUP188],2.4 ± 0.053
13,DRKIEFPPPSVAARAEI [RPT6],1.83 ± 0.096
14,DRKNRAPPQRPRFNREN [RPS26A],3.29 ± 0.11
15,DRMDVDEDESQNIAQSS [HRT1],2.21 ± 0.051
16,DRVAKVLTYPEKVTRYN [RPO31],2.94 ± 0.29
17,DSALRYSILGDRFKYRS [POP4],3.23 ± 0.098
18,DSDGTRLKGDIFCVGSG [PRE2],2.93 ± 0.091
19,DSESDSDSETNHKSKDN [SKP1],3 ± 0.039
20,DSFIEKIIPKDISATQL [ITC1],3.07 ± 0.086
21,DSFKYEPLAPGNDNLIK [YLR335W/NUP2],2.63 ± 0.045
22,DSGIGSNGSGIVAAGGG [CSL4],3.35 ± 0.052
23,DSKNTPNVFDKDSYVRI [YDL088C/ASM4],3.06 ± 0.072
24,DSLTQNNNNAPIIIYGT [YOR098C/NUP1],2.8 ± 0.041

row,Sequence,protein stability index
1,DSNGDFNEDQLFSLLEL [RRP46],3.31 ± 0.069
2,DSNMDSISSVVSEDLLD [RPN4],2.76 ± 0.05
3,DSNSEILNFLNQEDLFE [YML103C/NUP188],2.76 ± 0.049
4,DSPASNEDDLTVKLTEI [RPO31],2.97 ± 0.053
5,DSSSVSEDSAVFKATSS [FAS1],2.98 ± 0.065
6,DSTQLLETILEEFRNLA [SSN2],2.85 ± 0.055
7,DSVENSSNILEDILYYS [SRB8],2.5 ± 0.058
8,DSVFSFGPKKENRKKDE [YLR335W/NUP2],2.9 ± 0.048
9,DTDKLPIKNRTSKSFSK [SIN4],2.61 ± 0.11
10,DTETFDTVNSALENDVA [YML103C/NUP188],3.16 ± 0.2
11,DTFVHVTDLSGKETIAR [RPS14B],2.83 ± 0.062
12,DTKDALSTRELAGKVGS [RPC53],2.79 ± 0.1
13,DTKSVVGLVMFSQFWYW [RPN2],2.61 ± 0.097
14,DTSDIIVDPTAEQLKIS [RRP46],2.73 ± 0.14
15,DVDPEFYLKYVDIRVGK [RET1],2.4 ± 0.14
16,DVEENRSEFIESLLNWI [YJR042W/NUP85],3.35 ± 0.14
17,DVETVKREIQEALSEKP [RPC53],3.17 ± 0.13
18,DVFTINPHQKDQLIISS [YML103C/NUP188],1.62 ± 0.24
19,DVIHFEDSSILQSIVNE [PCI8],3.04 ± 0.05
20,DVKLLNPIDIKRRFGEL [RPP1],2.38 ± 0.14
21,DVLKDGENNINFQKASA [BRN1],3.51 ± 0.077
22,DVPAYNVTSFMPFWKFF [SRB8],1.5 ± 0.06
23,DVVGTLSRNGKPVMEVT [FAS1],2.65 ± 0.12
24,DWEDEEKYEDEDEEKIL [DSN1],3.26 ± 0.24

row,Sequence,protein stability index
1,DYGEEIKSGVAKLESLL [MTW1],3.37 ± 0.13
2,DYNLRIYCYFLIMKLGR [SSN8],1.36 ± 0.29
3,DYSEIQRSRRKFSERRK [DSN1],3.46 ± 0.087
4,DYVASLNELYQTQQDLP [NSL1],3.12 ± 0.058
5,EAAKLLVDSLATFTSIE [RPN7],3.24 ± 0.096
6,EAASSNKSFIVDQGQIY [ITC1],2.89 ± 0.044
7,EARAEAINLMGVKNNLL [RPO31],1.84 ± 0.23
8,EARFDVLITSYEMVIRE [ISW2],1.88 ± 0.11
9,EARINELLSSLEGKGSL [RPP2B],2.91 ± 0.047
10,EARLRNLTYSSGLFVDV [RPB2],1.46 ± 0.075
11,ECADLWPRVASNSGVVV [RPL23A],3.06 ± 0.11
12,ECLPAEGHDWKAPTKLD [DIS3],3.35 ± 0.071
13,EDAFNFWFDKLVTKILP [YCG1],2.88 ± 0.12
14,EDCVEEFFHLQHYLDTA [QCR6],3.13 ± 0.063
15,EDEDDDDDDDEDEEEEE [QCR6],3.4 ± 0.041
16,EDEEDDNISSFHSAVEN [YCG1],3.26 ± 0.052
17,EDGLLEGLDELPKIIQL [SOH1],3.12 ± 0.044
18,EDGTIESYNQNDWKLET [SIN4],3.22 ± 0.12
19,EDHIFFKYIYELILAGA [YDL116W/NUP84],1.69 ± 0.089
20,EDSENPSDWQRNSFIRD [ITC1],3.14 ± 0.065
21,EEAAEESDDDMGFGLFD [RPP1B],3.371 ± 0.029
22,EEASQQQQLQQNSKEKN [MED2],2.92 ± 0.071
23,EEDADQEESFSLNLGIG [SRB8],2.94 ± 0.17

# Same assay, conditions: ubr1∆
row,Sequence,protein stability index
1,DKQDGTAKPAFSFGAKP [YJL041W/NSP1],3.35 ± 0.086
